Bridges are numbered along the chain shown (N, C = ends). Where no end group is shown, it is not given here. [ ]: non-standard residue; d: D form. Aib = CC(C)(N)C(=O)O
T1: human GIP receptor (human, UniProt P48546 22-466)
T1 sequence (looked up): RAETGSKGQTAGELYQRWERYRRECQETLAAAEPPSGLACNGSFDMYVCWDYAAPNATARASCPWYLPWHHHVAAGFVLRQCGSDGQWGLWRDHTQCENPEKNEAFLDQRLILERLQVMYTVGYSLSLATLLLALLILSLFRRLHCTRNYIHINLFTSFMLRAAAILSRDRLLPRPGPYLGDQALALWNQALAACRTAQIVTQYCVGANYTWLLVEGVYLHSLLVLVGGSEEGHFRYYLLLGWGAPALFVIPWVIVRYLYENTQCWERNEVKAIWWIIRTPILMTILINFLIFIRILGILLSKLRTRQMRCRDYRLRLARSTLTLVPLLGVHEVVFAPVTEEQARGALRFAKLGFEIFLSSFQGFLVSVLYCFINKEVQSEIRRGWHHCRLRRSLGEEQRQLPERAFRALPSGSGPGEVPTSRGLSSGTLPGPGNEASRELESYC


The binders below were run against T1, human GIP receptor (assay: cell-based or functional assay).
For Y[Aib]QGTFTSDYSKCLDEKRAKEFVQWLLDHHPSSGQPPPS (bridge 16-20) [Triple agonist of SEQ ID NO: 22], the “In vitro activity compared with native peptide (%) vs. GIP” value (“In vitro activity … (%) vs. GIP” below) was 59.7%. For Y[Aib]QGTFTSDYSKYLDECRAKEFVQWLLAQKGKKNDWKHNIT (bridge 16-20) [Triple agonist of SEQ ID NO: 23], the “In vitro activity … (%) vs. GIP” value was less than 0.1%. For H[Aib]QGTFTSDVSSYLLGQAAKQFIAWLVKGGGPSSGAPPPSC [Triple agonist of SEQ ID NO: 3], the “In vitro activity … (%) vs. GIP” value was less than 0.1%. Y[Aib]QGTFTSDYSKYLDECRAKEFVQWLKNGGPSSGAPPPS (bridge 16-20) [Triple agonist of SEQ ID NO: 24] was tested, and the “In vitro activity … (%) vs. GIP” value was less than 0.1%. With H[Aib]QGTFTSDCSKYLDERAAQDFVQWLLDGGPSSGAPPPS [Triple agonist of SEQ ID NO: 25] the “In vitro activity … (%) vs. GIP” value was less than 0.1%. With H[Aib]QGTFTSDCSKYLDSRAAQDFVQWLLDGGPSSGAPPPS [Triple agonist of SEQ ID NO: 26] the “In vitro activity … (%) vs. GIP” value was less than 0.1%. H[Aib]QGTFTSDYSKYLDERACQDFVQWLLDQGGPSSGAPPPS [Triple agonist of SEQ ID NO: 27] was tested, and the “In vitro activity … (%) vs. GIP” value was 0.9%. For H[Aib]QGTFTSDYSKYLDEKRAQEFVCWLLAQKGKKNDWKHNIT [Triple agonist of SEQ ID NO: 28], the “In vitro activity … (%) vs. GIP” value was less than 0.1%. For H[Aib]QGTFTSDYSKYLDEKAAKEFVQWLLNTC (bridge 16-20) [Triple agonist of SEQ ID NO: 29], the “In vitro activity … (%) vs. GIP” value was less than 0.1%. In the case of H[Aib]QGTFTSDYSKYLDEKAQKEFVQWLLDTC (bridge 16-20) [Triple agonist of SEQ ID NO: 30], the “In vitro activity … (%) vs. GIP” value is reported as 0.8%. In the case of H[Aib]QGTFTSDYSKYLDEKACKEFVQWLLAQ (bridge 16-20) [Triple agonist of SEQ ID NO: 31], the “In vitro activity … (%) vs. GIP” value is reported as 2.4%. For H[Aib]QGTFTSDYSKYLDEKACKDFVQWLLDGGPSSGAPPPS (bridge 16-20) [Triple agonist of SEQ ID NO: 32], the “In vitro activity … (%) vs. GIP” value was 8.8%. With H[Aib]QGTFTSDYSIAMDEIHQKDFVNWLLAQKC (bridge 16-20) [Triple agonist of SEQ ID NO: 33] the “In vitro activity … (%) vs. GIP” value was 10.4%.

Each binder was assayed against human GLP-1 receptor (human, UniProt P43220 24-463) (assay: cell-based or functional assay).
For Y[Aib]QGTFTSDYSKCLDEKRAKEFVQWLLDHHPSSGQPPPS (bridge 16-20) [Triple agonist of SEQ ID NO: 22], the “In vitro activity compared with native peptide (%) vs. GLP-1” value (“In vitro activity … (%) vs. GLP-1” for short) was 20.1%. For Y[Aib]QGTFTSDYSKYLDECRAKEFVQWLLAQKGKKNDWKHNIT (bridge 16-20) [Triple agonist of SEQ ID NO: 23], the “In vitro activity … (%) vs. GLP-1” value was 4.01%. In the case of H[Aib]QGTFTSDVSSYLLGQAAKQFIAWLVKGGGPSSGAPPPSC [Triple agonist of SEQ ID NO: 3], the “In vitro activity … (%) vs. GLP-1” value is reported as 1.8%. In the case of Y[Aib]QGTFTSDYSKYLDECRAKEFVQWLKNGGPSSGAPPPS (bridge 16-20) [Triple agonist of SEQ ID NO: 24], the “In vitro activity … (%) vs. GLP-1” value is reported as 41.2%. In the case of H[Aib]QGTFTSDCSKYLDERAAQDFVQWLLDGGPSSGAPPPS [Triple agonist of SEQ ID NO: 25], the “In vitro activity … (%) vs. GLP-1” value is reported as 82.6%. H[Aib]QGTFTSDCSKYLDSRAAQDFVQWLLDGGPSSGAPPPS [Triple agonist of SEQ ID NO: 26] was tested, and the “In vitro activity … (%) vs. GLP-1” value was 64.5%. With H[Aib]QGTFTSDYSKYLDERACQDFVQWLLDQGGPSSGAPPPS [Triple agonist of SEQ ID NO: 27] the “In vitro activity … (%) vs. GLP-1” value was 83.1%. With H[Aib]QGTFTSDYSKYLDEKRAQEFVCWLLAQKGKKNDWKHNIT [Triple agonist of SEQ ID NO: 28] the “In vitro activity … (%) vs. GLP-1” value was 17.2%. H[Aib]QGTFTSDYSKYLDEKAAKEFVQWLLNTC (bridge 16-20) [Triple agonist of SEQ ID NO: 29] was tested, and the “In vitro activity … (%) vs. GLP-1” value was 38.5%. With H[Aib]QGTFTSDYSKYLDEKAQKEFVQWLLDTC (bridge 16-20) [Triple agonist of SEQ ID NO: 30] the “In vitro activity … (%) vs. GLP-1” value was 142%. H[Aib]QGTFTSDYSKYLDEKACKEFVQWLLAQ (bridge 16-20) [Triple agonist of SEQ ID NO: 31] was tested, and the “In vitro activity … (%) vs. GLP-1” value was 135%. In the case of H[Aib]QGTFTSDYSKYLDEKACKDFVQWLLDGGPSSGAPPPS (bridge 16-20) [Triple agonist of SEQ ID NO: 32], the “In vitro activity … (%) vs. GLP-1” value is reported as 151%. With H[Aib]QGTFTSDYSIAMDEIHQKDFVNWLLAQKC (bridge 16-20) [Triple agonist of SEQ ID NO: 33] the “In vitro activity … (%) vs. GLP-1” value was 24.5%.

These binders were tested against human GCG receptor (human, UniProt P47871 26-477) (assay: cell-based or functional assay).
Sequence of human GCG receptor (P47871 26-477): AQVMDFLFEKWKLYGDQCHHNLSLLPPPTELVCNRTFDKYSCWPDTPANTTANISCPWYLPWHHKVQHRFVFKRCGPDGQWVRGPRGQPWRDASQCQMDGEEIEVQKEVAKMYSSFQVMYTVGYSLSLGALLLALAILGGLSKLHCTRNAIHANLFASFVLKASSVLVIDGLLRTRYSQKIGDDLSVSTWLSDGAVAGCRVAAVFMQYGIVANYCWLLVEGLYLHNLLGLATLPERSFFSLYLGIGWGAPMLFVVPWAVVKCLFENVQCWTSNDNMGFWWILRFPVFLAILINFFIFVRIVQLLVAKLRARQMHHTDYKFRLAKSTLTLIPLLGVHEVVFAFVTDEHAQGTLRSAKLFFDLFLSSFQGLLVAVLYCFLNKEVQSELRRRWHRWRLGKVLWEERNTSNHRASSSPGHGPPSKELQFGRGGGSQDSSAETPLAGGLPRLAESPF
In the case of Y[Aib]QGTFTSDYSKCLDEKRAKEFVQWLLDHHPSSGQPPPS (bridge 16-20) [Triple agonist of SEQ ID NO: 22], the “In vitro activity compared with native peptide (%) vs. Glucagon” value (“In vitro activity … (%) vs. Glucagon” below) is reported as 140%. With Y[Aib]QGTFTSDYSKYLDECRAKEFVQWLLAQKGKKNDWKHNIT (bridge 16-20) [Triple agonist of SEQ ID NO: 23] the “In vitro activity … (%) vs. Glucagon” value was 9.3%. With H[Aib]QGTFTSDVSSYLLGQAAKQFIAWLVKGGGPSSGAPPPSC [Triple agonist of SEQ ID NO: 3] the “In vitro activity … (%) vs. Glucagon” value was less than 0.1%. With Y[Aib]QGTFTSDYSKYLDECRAKEFVQWLKNGGPSSGAPPPS (bridge 16-20) [Triple agonist of SEQ ID NO: 24] the “In vitro activity … (%) vs. Glucagon” value was 9.3%. H[Aib]QGTFTSDCSKYLDERAAQDFVQWLLDGGPSSGAPPPS [Triple agonist of SEQ ID NO: 25] was tested, and the “In vitro activity … (%) vs. Glucagon” value was 0.1%. With H[Aib]QGTFTSDCSKYLDSRAAQDFVQWLLDGGPSSGAPPPS [Triple agonist of SEQ ID NO: 26] the “In vitro activity … (%) vs. Glucagon” value was 0.2%. H[Aib]QGTFTSDYSKYLDERACQDFVQWLLDQGGPSSGAPPPS [Triple agonist of SEQ ID NO: 27] was tested, and the “In vitro activity … (%) vs. Glucagon” value was 0.8%. For H[Aib]QGTFTSDYSKYLDEKRAQEFVCWLLAQKGKKNDWKHNIT [Triple agonist of SEQ ID NO: 28], the “In vitro activity … (%) vs. Glucagon” value was 1.6%. H[Aib]QGTFTSDYSKYLDEKAAKEFVQWLLNTC (bridge 16-20) [Triple agonist of SEQ ID NO: 29] was tested, and the “In vitro activity … (%) vs. Glucagon” value was 6%. With H[Aib]QGTFTSDYSKYLDEKAQKEFVQWLLDTC (bridge 16-20) [Triple agonist of SEQ ID NO: 30] the “In vitro activity … (%) vs. Glucagon” value was 0.7%. H[Aib]QGTFTSDYSKYLDEKACKEFVQWLLAQ (bridge 16-20) [Triple agonist of SEQ ID NO: 31] was tested, and the “In vitro activity … (%) vs. Glucagon” value was 2.2%. With H[Aib]QGTFTSDYSKYLDEKACKDFVQWLLDGGPSSGAPPPS (bridge 16-20) [Triple agonist of SEQ ID NO: 32] the “In vitro activity … (%) vs. Glucagon” value was 1.7%. For H[Aib]QGTFTSDYSIAMDEIHQKDFVNWLLAQKC (bridge 16-20) [Triple agonist of SEQ ID NO: 33], the “In vitro activity … (%) vs. Glucagon” value was less than 0.1%.

— patent US20240024426A1, “HYPOTENSIVE PHARMACEUTICAL COMPOSITION COMPRISING TRIPLE ACTIVATOR HAVING ACTIVITY FOR ALL OF GLUCAGON, GLP-1, AND GIP RECEPTORS” (HANMI PHARM. CO., LTD., priority 2020, published 2024)
